From patent publication US20140336126A1 (INSTITUT PASTEUR, published 2014)

B1: HA-Optn Δ131-297 (other)
chain: MSHQPLSCLTEKEDSPSESTGNGPPHLAHPNLDTFTPEELLQQMKELLTENHQLKEAMKLNNQAMKGRFEELSAWTEKQKEERQFFEIQSKEAKERLMALSHENEKLKEELGKLKGKSERSSEDPTDDSREVEALNLQVTSLFKELQEAHTKLSKAELMKKRLQEKCQALERKNSAIPSELNEKQELVYTNKKLELQVESMLSEIKMEQAKTEDEKSKLTVLQMTHNKLLQEHNNALKTIEELTRKESEKVDRAVLKELSEKLELAEKALASKQLQMDEMKQTIAKQEEDLETMTILRAQMEVYCSDFHAERAAREKIHEEKEQLALQLAVLLKENDAFEDGGRQSLMEMQSRHGARTSDSDQQAYLVQRGAEDRDWRQQRNIPIHSCPKCGEVLPDIDTLQIHVMDCII
B2: myosin phosphatase targeting subunit 1 (MYPT1) (other)
chain: MKMADAKQKRNEQLKRWIGSETDLEPPVVKRQKTKVKFDDGAVFLAACSSGDTDEVLKLLHRGADINYANVDGLTALHQACIDDNVDMVKFLVENGANINQPDNEGWIPLHAAASCGYLDIAEFLIGQGAHVGAVNSEGDTPLDIAEEEAMEELLQNEVNRQGVDIEAARKEEERIMLRDARQWLNSGHINDVRHAKSGGTALHVAAAKGYTEVLKLLIQAGYDVNIKDYDGWTPLHAAAHWGKEEACRILVDNLCDMEMVNKVGQTAFDVADEDILGYLEELQKKQNLLHSEKRDKKSPLIESTANMDNNQSQKTFKNKETLIIEPEKNASRIESLEQEKVDEEEEGKKDESSCSSEEDEEDDSESEAETDKTKPLASVTNANTSSTQAAPVAVTTPTVSSGQATPTSPIKKFPTTATKISPKEEERKDESPATWRLGLRKTGSYGALAEITASKEGQKEKDTAGVTRSASSPRLSSSLDNKEKEKDSKGTRLAYVAPTIPRRLASTSDIEEKENRDSSSLRTSSSYTRRKWEDDLKKNSSVNEGSTYHKSCSFGRRQDDLISSSVPSTTSTPTVTSAAGLQKSLLSSTSTTTKITTGSSSAGTQSSTSNRLWAEDSTEKEKDSVPTAVTIPVAPTVVNAAASTTTLTTTTAGTVSSTTEVRERRRSYLTPVRDEESESQRKARSRQARQSRRSTQGVTLTDLQEAEKTIGRSRSTRTREQENEEKEKEEKEKQDKEKQEEKKESETSREDEYKQKYSRTYDETYQRYRPVSTSSSTTPSSSLSTMSSSLYASSQLNRPNSLVGITSAYSRGITKENEREGEKREEEKEGEDKSQPKSIRERRRPREKRRSTGVSFWTQDSDENEQEQQSDTEEGSNKKETQTDSISRYETSSTSAGDRYDSLLGRSGSYSYLEERKPYSSRLEKDDSTDFKKLYEQILAENEKLKAQLHDTNMELTDLKLQLEKATQRQERFADRSLLEMEKRERRALERRISEMEEELKMLPDLKADNQRLKDENGALIRVISKLSK
notes: also called HA-MYPT1; HA-tagged-MYPT1
B3: type 1 protein phosphatase catalytic subunit PP1β (enzyme, UniProt P62140 1-327, looked up)
chain: MADGELNVDSLITRLLEVRGCRPGKIVQMTEAEVRGLCIKSREIFLSQPILLELEAPLKICGDIHGQYTDLLRLFEYGGFPPEANYLFLGDYVDRGKQSLETICLLLAYKIKYPENFFLLRGNHECASINRIYGFYDECKRRFNIKLWKTFTDCFNCLPIAAIVDEKIFCCHGGLSPDLQSMEQIRRIMRPTDVPDTGLLCDLLWSDPDKDVQGWGENDRGVSFTFGADVVSKFLNRHDLDLICRAHQVVEDGYEFFAKRQLVTLFSAPNYCGEFDNAGGMMSVDETLMCSFQILKPSEKKAKYQYGGLNSGRPVTPPRTANPPKKR
notes: Endogenous protein or transfected Flag-tagged PP1β (ImaGenes), as said under assay; also called PP1cβ; Flag-tagged-PP1β

Legend:
[1] = biological target: B2; experiment: anti-MYPT1 immunoprecipitation, anti-HA Western blot, transfected HeLa cells (FIG. 4D)
[2] = biological target: T1, Optineurin (Optn), wild type (human, UniProt Q96CV9 1-577); experiment: TAP and co-immunoprecipitations, title of FIG. 4
T1 construct: Full-length wild-type human Optn; also called Optn WT; HA-Optn

[3] = biological target: B2; experiment: anti-Flag immunoprecipitation of Flag-PP1β, transfected HEK-293T cells (FIG. 4B)

Binder: B1
- binding result [1]: no binding

Binder: B2
- binding result [2]: binds

Binder: B3
- binding result [3]: binds
